± gives the standard deviation of the averaged measurements.

Switch fluorescence ratio data for 79 sequences are collected here from the supplement of paper PMC10126150.
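Further: ATP exposure 15 min at 22 °C before imaging.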

The data set deals with ATP. The experiment in a line: switch fluorescence ratio, 500 uM ATP over buffer (Cy3 cluster intensity, sum of 5 cycles each) (fold (ratio)); higher = stronger signal-on switching upon ATP binding; sequences stand for … in TCGTCGGCAGCGTCAGATGTGTATAAGAGACAGTTTTTTTTTTTTTTTTTTTTTTTTT…TC. Conditions: aptamer strand: ATP DNA aptamer (quencher-CACCTGGGGGAGTATTGCGGAGGAAGG + anchor), 100 nM annealed; ATP concentration: 500 uM. The method, boiled down:
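The fluorescence ratio divides summed target-cycle Cy3 intensity by summed buffer-cycle Cy3 intensity for each cluster and is averaged per switch-domain sequence. Cy3-labelled switching-strand clusters on a modified Illumina MiSeq flow-cell were annealed to 100 nM quencher-labelled ATP aptamer, then imaged in selection buffer and again after 15 min with 500 uM ATP at 22 °C. Five such cycles were run, with NaOH stripping and re-annealing between them, and clusters outside 100-1000 RFU were excluded.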
Take GAAGGCAGGG: the switch fluorescence ratio was determined as 0.986 ± 0.029.
As for GTTAGACTAT, the figure is 0.99057 ± 0.00092; as for TTTGGATGTG, 0.984 ± 0.032; as for GGTTCTGGCG, 0.992 ± 0.045.
With GGGGCTGGTA the figure was 1.003 ± 0.0043; with ACGGAGAAAC, 1.35 ± 0.11; with GCTATTTAGT, 1.0108 ± 0.00043.
With AGCTGAAGAC the figure was 1.25 ± 0.097.
With GATCGTCTGC, the switch fluorescence ratio was 0.925 ± 0.035.
With GTTGGGGTGC the figure was 1.01 ± 0.028.
As for TATGTGGTTG, the figure is 0.99 ± 0.016; as for CGCGCGTCGG, 0.978 ± 0.021; as for TCTTGGATCT, 0.987 ± 0.055.
As for GGTAGTGCGT, the figure is 0.968 ± 0.043; as for TTAATTAATA, 0.985 ± 0.013.
Turning to CCGAACTATG, the switch fluorescence ratio is 1.135 ± 0.0027.
As for GGGGCCGATA, the figure is 1.04 ± 0.079; as for GACGTAATTA, 1.5 ± 0.045; as for TTTTCCAGTT, 0.998 ± 0.029.
For CGGTTACGAC, the switch fluorescence ratio worked out at 1.02 ± 0.021.
With TTTGATTTCG the figure was 1.01 ± 0.024; with TTTGTATAAC, 1.01 ± 0.012; with CGTTTCGTGC, 0.9919 ± 0.003.
As for ATTGAGGCAA, the figure is 1.22 ± 0.066; as for TCTTACAATC, 1.1 ± 0.095.
With GGGTTTGAGG the figure was 0.9806 ± 0.0072; with TGAACGGGTG, 1.04 ± 0.068.
Consider TTTCCCTGGT, for which the switch fluorescence ratio was determined as 1.12 ± 0.11.
As to GTAGTAGCCA, the switch fluorescence ratio was 1.01 ± 0.033.
As for TAGGGGCCTA, the figure is 0.995 ± 0.011.
GAGGATAGGT: the switch fluorescence ratio worked out at 0.98 ± 0.011.
As for AAGGGTGGAG, the figure is 0.996 ± 0.026.
As for CTTAGGGCGA, the figure is 0.9728 ± 0.001.
With GGGTGGGGGT the figure was 1.03 ± 0.018; with AGTGTGTTGC, 1.023 ± 0.0095.
For CAGAAAAGCA, the switch fluorescence ratio was determined as 1.03 ± 0.017.
In the case of TCTCTATTT, the switch fluorescence ratio was determined as 0.965 ± 0.048.
In the case of TCATGGATAG, the switch fluorescence ratio came to 1.006 ± 0.002.
As for AGGGTACAGT, the figure is 1.04 ± 0.055; as for TTAAGACTGT, 1.01 ± 0.037.
With CCAATAAGGG the figure was 0.994 ± 0.048; with AAGAAAGGTC, 0.994 ± 0.12.
As for TTGGGTCTTC, the figure is 0.9736 ± 0.0014; as for AAGCGGGG, 1.006 ± 0.002.
With ATTTTGGCAA, the switch fluorescence ratio was 1.42 ± 0.3.
As for GATGTTATCG, the figure is 0.99 ± 0.015.
As for TCCGAGGGGT, the figure is 1.67 ± 0.91.
As for TAATTGGGAA, the switch fluorescence ratio was 0.997 ± 0.035.
Regarding GGAGTACTGT, the switch fluorescence ratio was found to be 1.02 ± 0.013.
As for ATGGGTGAGT, the figure is 1.002 ± 0.0086; as for TCGTATTTTC, 0.994 ± 0.058.
With AAACCTGGCT the figure was 1.41 ± 0.034; with TTGGGCAACA, 1.05 ± 0.079; with ATAACGTAGC, 1.11 ± 0.059.
As for GGATATCTGG, the switch fluorescence ratio was 1.014 ± 0.0053.
As for ATTTGGTAAA, the figure is 0.9859 ± 0.009.
With CTAAAAGGGA the figure was 0.95 ± 0.033.
As for TGTGTTAAAT, the figure is 1.04 ± 0.011; as for AATAAGGGA, 1.03 ± 0.1.
On to TTTGCTTTGT, for which the switch fluorescence ratio turned out to be 1.01 ± 0.023.
Take ATCTTGGGTT: the switch fluorescence ratio is 1.006 ± 0.0064.
As for GCGCGTGGAG, the figure is 1.04 ± 0.03; as for TAGTTGTCCG, 1.02 ± 0.12.
TTTTGAAAAG: the switch fluorescence ratio worked out at 1.01 ± 0.019.
Consider GCCCGGGGGG, for which the switch fluorescence ratio was 1.03 ± 0.0083.
With AAAGGCACCC the figure was 1.05 ± 0.019.
Regarding GTTAATGTAA, the switch fluorescence ratio was 0.9934 ± 0.0059.
As for ATCAGGGGTA, the figure is 1.26 ± 0.34.
As for CAATAAGATT, the figure is 1.016 ± 0.0077; as for TATTACACAT, 1.01 ± 0.04; as for AGATCTTGTG, 1 ± 0.022.
As for TCCATTTTTT, the figure is 0.992 ± 0.035; as for TAAAAATGAC, 1.07 ± 0.1; as for GGGGGGGGCA, 0.985 ± 0.024.
With CGGGGGCGGT, the switch fluorescence ratio was determined as 0.998 ± 0.03.
As for CAGAATTAA, the figure is 1 ± 0.037.
On to CGAGCAGAGT, for which the switch fluorescence ratio is 1.13 ± 0.021.
As for ATTTCGTTTC, the figure is 1.05 ± 0.1; as for GCATGCATTG, 0.97797 ± 0.0001.
